Tested on: Fct4 protein (Sendai virus F protein with truncated cytoplasmic domain), uncleaved

trypsin-like enzyme TrypLE
cleavage of Fct4 shown by Western blotting: incubation with a trypsin-like enzyme successfully cleaves Fct4

Source: US20240082327
